Test results published in PMC2756588.

What follows are binders tested against T1, Abp1, P15891 (assay: SPOT array). Settings: median of control spots 935.
T1 sequence (P15891 535-592, looked up): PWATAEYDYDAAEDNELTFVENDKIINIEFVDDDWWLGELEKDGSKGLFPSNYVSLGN

Row | Binder | SPOT intensity
1 | RRSKSLPITPKSIFN | 117
2 | RRSKSLPTTPGIRSG | 229

Each binder was assayed against T2, Bbc1, P47068 (assay: SPOT array). Settings: median of control spots 796.
T2 sequence (P47068 1-78, looked up): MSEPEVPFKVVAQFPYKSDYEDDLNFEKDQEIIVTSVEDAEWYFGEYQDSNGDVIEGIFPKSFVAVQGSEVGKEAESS

Row | Binder | SPOT intensity
3 | RRSKSLPITPKSIFN | 15
4 | RRSKSLPTTPGIRSG | 19

These binders were tested against Bem1-1, P29366 (assay: SPOT array). Settings: median of control spots 4282.
Chain of Bem1-1, P29366 (P29366 55-141): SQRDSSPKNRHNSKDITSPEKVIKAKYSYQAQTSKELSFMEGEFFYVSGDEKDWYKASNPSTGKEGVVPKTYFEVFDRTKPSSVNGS

Row | Binder | SPOT intensity
5 | RRSKSLPITPKSIFN | 0
6 | RRSKSLPTTPGIRSG | 1

These binders were tested against Bem1-2, P29366 (assay: SPOT array). Settings: median of control spots 4347.
Chain of Bem1-2, P29366 (P29366 139-227): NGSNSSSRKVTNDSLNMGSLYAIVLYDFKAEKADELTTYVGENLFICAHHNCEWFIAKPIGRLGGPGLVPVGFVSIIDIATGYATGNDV

Row | Binder | SPOT intensity
7 | RRSKSLPITPKSIFN | 0
8 | RRSKSLPTTPGIRSG | 0

These binders were tested against T3, Boi1, P38041 (assay: SPOT array). Settings: median of control spots 1162.
T3 sequence (P38041 1-86, looked up): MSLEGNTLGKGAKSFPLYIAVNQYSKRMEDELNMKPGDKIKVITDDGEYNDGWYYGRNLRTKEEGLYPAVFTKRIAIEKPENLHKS

Row | Binder | SPOT intensity
9 | RRSKSLPITPKSIFN | 0
10 | RRSKSLPTTPGIRSG | 3

The binders below were run against T4, Boi2, P39969 (assay: SPOT array). Settings: median of control spots 1161.
T4 sequence (P39969 32-116, looked up): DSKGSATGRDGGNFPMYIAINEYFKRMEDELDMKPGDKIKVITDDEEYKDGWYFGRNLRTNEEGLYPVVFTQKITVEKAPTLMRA

Row | Binder | SPOT intensity
11 | RRSKSLPITPKSIFN | 0
12 | RRSKSLPTTPGIRSG | 1

What follows are binders tested against T5, Bud14, P27637 (assay: SPOT array). Settings: median of control spots 956.
T5 sequence (P27637 247-328, looked up): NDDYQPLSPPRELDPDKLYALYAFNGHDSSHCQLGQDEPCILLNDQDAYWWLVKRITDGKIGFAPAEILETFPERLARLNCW

Row | Binder | SPOT intensity
13 | RRSKSLPITPKSIFN | 10
14 | RRSKSLPTTPGIRSG | 20

The binders below were run against T6, Bzz1-1, P38822 (assay: SPOT array). Settings: median of control spots 4446.
T6 sequence (P38822 478-572, looked up): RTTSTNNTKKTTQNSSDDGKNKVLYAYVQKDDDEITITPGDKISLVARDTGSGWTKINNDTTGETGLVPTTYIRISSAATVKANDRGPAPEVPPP

Row | Binder | SPOT intensity
15 | RRSKSLPITPKSIFN | 0
16 | RRSKSLPTTPGIRSG | 0

These binders were tested against T7, Bzz1-2, P38822 (assay: SPOT array). Settings: median of control spots 4538.
T7 sequence (P38822 568-633, looked up): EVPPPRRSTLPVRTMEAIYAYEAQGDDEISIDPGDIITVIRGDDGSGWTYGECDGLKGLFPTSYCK

Row | Binder | SPOT intensity
17 | RRSKSLPITPKSIFN | 0
18 | RRSKSLPTTPGIRSG | 1

Each binder was assayed against T8, Cdc25, P04821 (assay: SPOT array). Settings: median of control spots 969.
T8 sequence (P04821 50-136, looked up): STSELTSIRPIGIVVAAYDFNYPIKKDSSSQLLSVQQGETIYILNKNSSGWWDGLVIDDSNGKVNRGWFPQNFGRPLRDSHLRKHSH

Row | Binder | SPOT intensity
19 | RRSKSLPITPKSIFN | 15
20 | RRSKSLPTTPGIRSG | 17

Each binder was assayed against T9, Cyk3, Q07533 (assay: SPOT array). Settings: median of control spots 1451.
T9 sequence (Q07533 1-83, looked up): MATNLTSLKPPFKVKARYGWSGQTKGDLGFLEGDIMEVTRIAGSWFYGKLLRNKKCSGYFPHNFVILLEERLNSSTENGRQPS

Row | Binder | SPOT intensity
21 | RRSKSLPITPKSIFN | 0
22 | RRSKSLPTTPGIRSG | 0

These binders were tested against T10, Fus1, P11710 (assay: SPOT array). Settings: median of control spots 1200.
T10 sequence (P11710 432-512, looked up): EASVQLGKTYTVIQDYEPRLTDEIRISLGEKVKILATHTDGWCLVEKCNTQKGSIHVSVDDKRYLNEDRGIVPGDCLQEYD

Row | Binder | SPOT intensity
23 | RRSKSLPITPKSIFN | 26
24 | RRSKSLPTTPGIRSG | 63

The binders below were run against GST (assay: SPOT array). Settings: median of control spots 978.

Row | Binder | SPOT intensity
25 | RRSKSLPITPKSIFN | 2
26 | RRSKSLPTTPGIRSG | 0

What follows are binders tested against T11, Hof1, Q05080 (assay: SPOT array). Settings: median of control spots 4086.
T11 sequence (Q05080 590-669, looked up): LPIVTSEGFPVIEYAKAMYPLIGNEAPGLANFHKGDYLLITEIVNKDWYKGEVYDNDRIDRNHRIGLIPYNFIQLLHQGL

Row | Binder | SPOT intensity
27 | RRSKSLPITPKSIFN | 0
28 | RRSKSLPTTPGIRSG | 0

Each binder was assayed against T12, Hse1, P38753 (assay: SPOT array). Settings: median of control spots 1727.
T12 sequence (P38753 208-285, looked up): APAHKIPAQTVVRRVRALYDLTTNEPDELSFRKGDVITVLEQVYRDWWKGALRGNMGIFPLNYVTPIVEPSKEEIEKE

Row | Binder | SPOT intensity
29 | RRSKSLPITPKSIFN | 0
30 | RRSKSLPTTPGIRSG | 5

What follows are binders tested against T13, Lsb1, P53281 (assay: SPOT array). Settings: median of control spots 388.
T13 sequence (P53281 45-122, looked up): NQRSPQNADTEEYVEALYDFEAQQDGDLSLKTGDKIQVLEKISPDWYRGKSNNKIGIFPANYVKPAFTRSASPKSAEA

Row | Binder | SPOT intensity
31 | RRSKSLPITPKSIFN | 0
32 | RRSKSLPTTPGIRSG | 8

These binders were tested against T14, Lsb3, P43603 (assay: SPOT array). Settings: median of control spots 406.
T14 sequence (P43603 385-451, looked up): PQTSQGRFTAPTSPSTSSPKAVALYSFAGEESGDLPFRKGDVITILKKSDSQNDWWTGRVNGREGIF

Row | Binder | SPOT intensity
33 | RRSKSLPITPKSIFN | 0
34 | RRSKSLPTTPGIRSG | 1

Each binder was assayed against T15, Lsb4, P32793 (assay: SPOT array). Settings: median of control spots 397.
T15 sequence (P32793 402-468, looked up): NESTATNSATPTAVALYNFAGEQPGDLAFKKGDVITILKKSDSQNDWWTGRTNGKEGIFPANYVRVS

Row | Binder | SPOT intensity
35 | RRSKSLPITPKSIFN | 0
36 | RRSKSLPTTPGIRSG | 2

The binders below were run against Myo3, P36006 (assay: SPOT array). Settings: median of control spots 468.

Row | Binder | SPOT intensity
37 | RRSKSLPITPKSIFN | 0
38 | RRSKSLPTTPGIRSG | 12

The binders below were run against T16, Myo5, Q04439 (assay: SPOT array). Settings: median of control spots 471.
T16 sequence (Q04439 1072-1160, looked up): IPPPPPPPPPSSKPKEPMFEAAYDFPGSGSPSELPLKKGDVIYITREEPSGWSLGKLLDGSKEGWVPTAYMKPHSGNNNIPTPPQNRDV

Row | Binder | SPOT intensity
39 | RRSKSLPITPKSIFN | 0
40 | RRSKSLPTTPGIRSG | 0

What follows are binders tested against T17, Nbp2, Q12163 (assay: SPOT array). Settings: median of control spots 357.
T17 sequence (Q12163 103-180, looked up): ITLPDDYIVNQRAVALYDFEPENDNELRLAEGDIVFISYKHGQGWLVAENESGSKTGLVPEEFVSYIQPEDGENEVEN

Row | Binder | SPOT intensity
41 | RRSKSLPITPKSIFN | 0
42 | RRSKSLPTTPGIRSG | 49

Each binder was assayed against T18, Pex13, P80667 (assay: SPOT array). Settings: median of control spots 1341.
T18 sequence (P80667 295-386, looked up): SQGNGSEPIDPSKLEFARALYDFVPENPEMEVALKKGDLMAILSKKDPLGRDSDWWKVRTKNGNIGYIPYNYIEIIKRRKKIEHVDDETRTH

Row | Binder | SPOT intensity
43 | RRSKSLPITPKSIFN | 8
44 | RRSKSLPTTPGIRSG | 8

Each binder was assayed against T19, Pin3, Q06449 (assay: SPOT array). Settings: median of control spots 2171.
T19 sequence (Q06449 53-122, looked up): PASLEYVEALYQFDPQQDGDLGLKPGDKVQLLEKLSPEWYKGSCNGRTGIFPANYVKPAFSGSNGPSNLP

Row | Binder | SPOT intensity
45 | RRSKSLPITPKSIFN | 4
46 | RRSKSLPTTPGIRSG | 5

Each binder was assayed against Rvs167, P39743 (assay: SPOT array). Settings: median of control spots 2707.
Chain of Rvs167, P39743 (P39743 419-482): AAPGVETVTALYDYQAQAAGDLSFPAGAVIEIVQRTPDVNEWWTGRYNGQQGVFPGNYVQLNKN

Row | Binder | SPOT intensity
47 | RRSKSLPITPKSIFN | 0
48 | RRSKSLPTTPGIRSG | 0

What follows are binders tested against Sho1, P40073 (assay: SPOT array). Settings: median of control spots 1148.
Chain of Sho1, P40073 (P40073 287-367): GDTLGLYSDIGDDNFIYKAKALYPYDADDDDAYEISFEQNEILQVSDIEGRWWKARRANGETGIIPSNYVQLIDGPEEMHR

Row | Binder | SPOT intensity
49 | RRSKSLPITPKSIFN | 1070
50 | RRSKSLPTTPGIRSG | 1350

The binders below were run against T20, Sla1-2, P32790 (assay: SPOT array). Settings: median of control spots 712.
T20 sequence (P32790 60-140, looked up): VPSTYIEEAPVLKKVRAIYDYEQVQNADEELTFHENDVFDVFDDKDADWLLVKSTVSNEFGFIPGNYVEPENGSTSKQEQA

Row | Binder | SPOT intensity
51 | RRSKSLPITPKSIFN | 1
52 | RRSKSLPTTPGIRSG | 0

The binders below were run against T21, Sla1-3, P32790 (assay: SPOT array). Settings: median of control spots 5475.
T21 sequence (P32790 344-424, looked up): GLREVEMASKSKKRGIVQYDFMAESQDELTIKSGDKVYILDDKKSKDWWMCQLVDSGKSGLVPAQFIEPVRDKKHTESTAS

Row | Binder | SPOT intensity
53 | RRSKSLPITPKSIFN | 21
54 | RRSKSLPTTPGIRSG | 26
